Consider two proteins from doi:10.1101/2024.08.14.607909 (bioRxiv, 2024).

The data set “crystal structure” concerns the molecule itself. The data set is described as follows: crystal structure.
The data set “SEC-SAXS” deals with the molecule itself. The data set is described as follows: SEC-SAXS.

B1: C-terminal pentraxin domain of human PTX3 (domain or fragment)
chain: ELEGCETAILFPMRSKKIFGSVHPVRPMRLESFSACIWVKATDVLNKTILFSYGTKRNPYEIQLYLSYQSIVFVVGGEENKLVAEAMVSLGRWTHLCGTWNSEEGLTSLWVNGELAATTVEMATGHIVPEGGILQIGQEKNGCCVGGGFDETLAFSGRLTGFNIWDSVLSNEEIRETGGAESCHIRGNIVGWGVTEIQPHGGAQYVS
modifications: N-linked glycan at N220
As for B1, the binding result in “crystal structure” is “binds”.

B2: Δ1-24_PTX3 (PTX3 truncation mutant with residues 1-24 of the mature protein deleted) (domain or fragment, human)
chain: ELEDPTPCACGQEHSEWDKLFIMLENSQMRERMLLQATDDVLRGELQRLREELGRLAESLARPCAPGAPAEARLTSALDELLQATRDAGRRLARMEGAEAQRPEEAGRALAAVLEELRQTRADLHAVQGWAARSWLPAGCETAILFPMRSKKIFGSVHPVRPMRLESFSACIWVKATDVLNKTILFSYGTKRNPYEIQLYLSYQSIVFVVGGEENKLVAEAMVSLGRWTHLCGTWNSEEGLTSLWVNGELAATTVEMATGHIVPEGGILQIGQEKNGCCVGGGFDETLAFSGRLTGFNIWDSVLSNEEIRETGGAESCHIRGNIVGWGVTEIQPHGGAQYVS
modifications: N-linked glycan at N220
For the protein B2, in the data set “SEC-SAXS”, the binding result is listed as “binds”.
